Results from paper PMC10159178 (PLOS ONE, 2023).

Molecular target: wild-type SARS-CoV-2 RBD-His protein (SARS-CoV-2, wild-type, UniProt P0DTC2)
Assay: SPR
Conditions: both partners purified

Binder	Kd [nM]	koff [s⁻¹]	kon [M⁻¹ s⁻¹]	t1/2 [min]
1D1 human monoclonal antibody against the RBD of SARS-CoV-2 (antibody, V domains shown) VH: EVLLVESGGGLIQPGGSLRLSCAASGFTVSSNYMIWVRQAPGKGLEWVSLIYSGGSTFYADSVKGRFIISRDSSKNTLYLQMNSLRAEDTAVYYCAREPYGDKAWGQGTLVTVSS VL: DIQMTQSPSSLSASVGDRVTITCQASQDINKYLNWYQQKPGKAPKPLISDTSNLQPGVPSRFSGSGAGTDFTLTISSLQPEDIATYYCQQYDNLPITFGQGTRLEIK	0.242	0.00015	620000	
3D2 human monoclonal antibody against the RBD of SARS-CoV-2 (antibody, V domains shown, also called 3D2 mAb) VH: EVQLVQSGAEVKKPGDSLKISCKGSGYSFANYWIGWVRQKPGKGLEWMGIIYPGDSDTRYSPSSLGQVSISVDKSISTAYLQWSSLKASDTAMYYCARHPIHGYGSGSLYNPDYWGQGTLVTVSS VL: QSVLTQPPSVSAAPGQKVTISCSGSNSNIGINYVSWYQQLPETAPKLLIYENNQRPSGIPDRFSGSKSGTSATLGITGLQTGDEADYYCGTWDTSLGAYVFGTGTKVTVL	0.789	0.000268	339000	43.1
